Measurements taken from patent US20220031842A1 (JIANGSU HENGRUI MEDICINE, published 2022).
Changes are numbered by the printed parent chain.

Experiments:
[1] = biological target: T1, Fusion protein of LAG-3 extracellular region and mIgG2a Fc (human); assay: ELISA, LAG-3-mFc captured by anti-mouse Fc on plate (which fusion: inferred)
T1 construct: Limits of the signal peptide are marked only by lost underlining; also called LAG-3-mFc; LAG-3-mFc fusion protein
T1 chain: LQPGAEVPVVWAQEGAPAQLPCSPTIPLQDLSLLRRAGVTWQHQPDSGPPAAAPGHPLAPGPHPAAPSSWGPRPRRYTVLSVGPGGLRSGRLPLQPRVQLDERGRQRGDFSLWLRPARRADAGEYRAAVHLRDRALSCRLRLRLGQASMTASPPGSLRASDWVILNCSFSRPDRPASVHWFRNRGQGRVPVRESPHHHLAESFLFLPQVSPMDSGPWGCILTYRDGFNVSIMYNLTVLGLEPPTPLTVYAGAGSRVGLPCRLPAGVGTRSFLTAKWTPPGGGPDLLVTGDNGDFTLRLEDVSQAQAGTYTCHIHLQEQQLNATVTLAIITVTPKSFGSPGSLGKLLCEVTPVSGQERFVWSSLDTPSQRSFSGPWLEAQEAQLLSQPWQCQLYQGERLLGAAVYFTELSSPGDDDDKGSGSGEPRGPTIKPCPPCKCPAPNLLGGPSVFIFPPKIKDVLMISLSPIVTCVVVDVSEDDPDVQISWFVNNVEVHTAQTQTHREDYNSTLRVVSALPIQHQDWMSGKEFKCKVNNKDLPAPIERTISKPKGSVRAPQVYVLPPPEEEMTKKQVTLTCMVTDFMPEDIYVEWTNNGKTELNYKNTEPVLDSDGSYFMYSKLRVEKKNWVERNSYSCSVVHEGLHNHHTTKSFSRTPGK
Excerpt: The binding ability of anti-LAG-3 antibody to human LAG-3 protein was detected by ELISA assay. LAG-3 fusion protein with Fc or mFc tag was immobilized into 96-well microtiter plate by binding to anti-Fc or anti-mFc antibody coated on the microtiter plate, the strength of the signal after the addition of the antibody was used to determine the binding activity of the antibody to LAG-3, the specific experimental method is as follows.
The goat anti-human Fc antibody (Jackson Immuno Research, Cat No. 109-005-008) or goat anti-mouse Fc antibody (Sigma, Cat No. M3534-1ML) was diluted to a concentration of 2 μg/ml with PBS buffer at pH 7.4 (Sigma, Cat No. P4417-100TAB), and added to a 96-well plate at a volume of 50 μl/well and then, the plate was incubated in the incubator at 37° C. for 2 hours. After discarding the liquid, the plates were blocked with 200 μl/well of blocking solution containing 5% skim milk (Bright Dairy, skim milk powder) in PBS, and incubated in the incubator at 37° C. for 2.5 hours or overnight at 4° C. (16-18 hours). After blocking, the blocking solution was discarded and the plate was washed 5 times with PBST buffer (PH7.4 PBS containing 0.05% tween-20). LAG-3-Fc fusion protein (SEQ ID NO:3, produced in-house) or LAG-3-mFc fusion protein (SEQ ID NO: 4, produced in-house) was diluted with sample diluent (PH7.4 PBS containing 1% BSA) to 1 μg/ml and was added to each well, 50 μl/well. Then the plate was incubated in the incubator at 37° C. for 1 h or overnight at 4° C. After incubation, the reaction solution in the plate was discarded, and the plate was washed with PBST for 6 times, and then was added with 50 μl/well of various concentrations of antibodies to be tested (hybridoma purified antibody or humanized antibody) which have been diluted with sample diluent, and the plate was incubated at 37° C. for 1 h. The plates was washed 5 times with PBST after incubation, and was added with 100 μl/well of goat anti-mouse (Jackson Immuno Research, Cat No. 115-035-003) or goat anti-human secondary antibody (Jackson Immuno Research, Cat No. 109-035-003) labeled with HRP, diluted in sample diluent, and the plate was incubated at 37° C. for 1 h.

[2] = biological target: T2, Fusion protein of LAG-3 extracellular region and hIgG1 Fc (human); assay: competition: biotin-LAG-3-Fc binding to fixed Daudi cells, antibody titrated
T2 construct: Limits of the signal peptide are marked only by lost underlining; also called LAG-3-Fc; LAG-3-Fc fusion protein
Description: Daudi cells (human leukemia cells, purchased from the cell bank in Chinese Academy of Sciences) were seeded in 96-well plate with a density of 3×10⁵/well. After centrifugation at 1000 rpm, the supernatant was discarded and then the plate was fixed with 4% PFA for 30 min at room temperature. The plate was washed 4 times with PBS after discarding the fixed solution, and the plate was blocked with 200 μl/well of blocking solution containing 5% skim milk (Bright Dairy, skim milk powder) diluted in PBS, and incubated at 37° C. for 2.5 hours. After blocking, the blocking solution was discarded and the plate was washed 5 times with PBST buffer (pH7.4 PBS containing 0.05% tween-20), added with 50 μl/well mixture of biotin-labeled (Biotin labeling kit, Dojindo Chemical, Cat No. LK03) LAG-3-Fc fusion protein (produced in-house, SEQ ID NO: 3) and gradient concentrations of the antibody to be tested, wherein the biotin-labeled LAG-3-Fc fusion protein has been diluted with sample diluent (PH7.4 PBS containing 1% BSA) at a final concentration of 0.4 μg/ml, and pre-mixed for an hour, then the plate was incubated at 37° C. for 1 h. The reaction solution was discarded and the plate was washed 5 times with PBST after incubation, 50 μl/well of HRP-labeled Streptavidin (Sigma, Cat No. 52438) diluted with sample diluent was added, and the plate was incubated at 37° C. for 1 h. After washing the plate 5 times with PBST, 50 μl/well of TMB chromogenic substrate (KPL, Cat No. 52-00-03) was added to each well, and incubated at room temperature for 5-15 min, the reaction was stopped by the addition of 50 μl 1M H₂SO₄ to each well. The OD value at a wavelength of 450 nm was read on NOVOStar microplate reader, and then the activity of the LAG-3 antibody in blocking the binding of the antigen to Daudi cells was calculated.

[3] = biological target: T3, LAG-3 extracellular domain with a Flag tag (human, UniProt P18627 23-434); assay: SPR (Biacore), antibody captured on anti-human capture chip, LAG-3-Flag in flow
T3 construct: also called LAG-3-Flag; LAG-3-Flag antigen
T3 sequence: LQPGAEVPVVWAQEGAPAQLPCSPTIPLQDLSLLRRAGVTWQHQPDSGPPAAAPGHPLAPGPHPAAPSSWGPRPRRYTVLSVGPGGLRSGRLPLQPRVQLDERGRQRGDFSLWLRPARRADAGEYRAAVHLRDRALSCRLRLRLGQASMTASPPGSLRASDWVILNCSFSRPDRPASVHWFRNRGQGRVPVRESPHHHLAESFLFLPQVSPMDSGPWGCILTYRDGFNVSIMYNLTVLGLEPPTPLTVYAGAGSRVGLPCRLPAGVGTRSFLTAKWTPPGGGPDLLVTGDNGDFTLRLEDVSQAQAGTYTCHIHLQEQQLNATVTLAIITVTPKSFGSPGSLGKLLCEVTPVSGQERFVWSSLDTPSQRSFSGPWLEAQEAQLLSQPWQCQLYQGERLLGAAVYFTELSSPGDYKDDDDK
Excerpt: 2. […] Then, the LAG-3-Flag antigen (produced in-house, SEQ ID NO:1) was flowed through the surface of the biochip, and the reaction signal was detected real time using a Biacore instrument to obtain the binding and dissociation curves, the value of affinity was obtained by fitting, see table 10 below. After each cycle of dissociation was finished in the experiment, the biochip was washed and regenerated with a regeneration solution provided in the human anti-capture kit.

T2 sequence (chain, as listed by the source limits assumed): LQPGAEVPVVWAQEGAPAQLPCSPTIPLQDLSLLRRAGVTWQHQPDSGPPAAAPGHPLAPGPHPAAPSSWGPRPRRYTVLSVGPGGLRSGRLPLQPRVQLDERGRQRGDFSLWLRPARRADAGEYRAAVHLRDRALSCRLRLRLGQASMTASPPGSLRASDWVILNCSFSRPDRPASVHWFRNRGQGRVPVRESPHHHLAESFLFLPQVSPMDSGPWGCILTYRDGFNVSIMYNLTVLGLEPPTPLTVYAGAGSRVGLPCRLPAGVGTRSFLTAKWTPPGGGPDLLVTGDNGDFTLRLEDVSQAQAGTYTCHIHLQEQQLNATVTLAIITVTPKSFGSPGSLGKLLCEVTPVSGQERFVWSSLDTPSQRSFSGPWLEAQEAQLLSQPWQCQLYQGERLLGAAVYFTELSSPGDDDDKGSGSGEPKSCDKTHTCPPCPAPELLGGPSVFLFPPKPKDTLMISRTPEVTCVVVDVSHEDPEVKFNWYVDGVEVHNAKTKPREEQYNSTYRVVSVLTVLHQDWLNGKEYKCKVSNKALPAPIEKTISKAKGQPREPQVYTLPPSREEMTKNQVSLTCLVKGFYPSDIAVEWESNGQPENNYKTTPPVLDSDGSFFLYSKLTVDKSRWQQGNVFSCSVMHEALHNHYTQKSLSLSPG

B1: Hu303-010 (antibody, human IgG4 S228P, kappa, V domains shown)
VH: QVQLVQSGAEVKKPGASVKVSCKASGYTFTDYYMNWVRQAPGQRLEWMGVINPYNGDTAYNQKFKGRVTITVDKSASTAYMELSSLRSEDTAVYYCTRDDGYYDYYFDVWGQGTTVTVSS
VL: DIQMTQSPSSLSASVGDRVTITCRASQDIGSRLNWYQQKPGKAPKRLIYATSTLDSGVPSRFSGSRSGTDFTLTISSLQPEDFATYYCLQLASSPPTFGGGTKVEIKR
notes: Humanized mAb303
EC50 [1]: 0.137 nM
IC50 [2]: 0.346 nM
Kd [3]: 0.147 nM

B2: Hu229-010 (antibody, human IgG4 S228P, kappa, V domains shown)
VH: QVQLVQSGSELKKPGASVKVSCKASGYTFTTSGMSWVRQAPGQGLKWMGWINTYSGVPTYADDFKGRFVFSLDTSVSTAYLQISSLKAEDTAVYYCARDNYDARDVYYYAMDYWGQGTTVTVSS
VL: DIQMTQSPSSLSASVGDRVTITCRASENIYSNLAWYQQKPGKAPKLLVYAATNLADGVPSRFSGSGSGTQYTLTISSLQPEDFATYYCQHFWITPWTFGGGTKVEIKR
notes: Humanized mAb229
EC50 [1]: 0.174 nM
IC50 [2]: 0.453 nM
Kd [3]: 0.0382 nM

B3: Hu229-013 (antibody, human IgG4 S228P, kappa, V domains shown)
VH: B2 VH with R38K, V93T
VL: B2 VL with Q70D
notes: also called LAG-3 antibody Hu229-013; LAG3 antibody Hu229-013
EC50 [1]: 0.106 nM
IC50 [2]: 0.39 nM
Kd [3]: 0.0281 nM

B4: Hu229-017 (antibody, human IgG4 S228P, kappa, V domains shown)
VH: B2 VH with R38K, V93T, Y95F
VL: B2 VL with Q70D
notes: Humanized mAb229
EC50 [1]: 0.048 nM
IC50 [2]: 0.239 nM
Kd [3]: 0.0671 nM

B5: Hu229-019 (antibody, human IgG4 S228P, kappa, V domains shown)
VH: B2 VH with R38K, V93T, Y95F
VL: B2 VL with A43S
notes: Humanized mAb229
EC50 [1]: 0.068 nM
IC50 [2]: 0.289 nM
Kd [3]: 0.0729 nM

B6: Hu229-015 (antibody, human IgG4 S228P, kappa, V domains shown)
VH: B2 VH with R38K, V93T
VL: B2 VL with A43S
notes: Humanized mAb229
EC50 [1]: 0.156 nM
IC50 [2]: 0.808 nM
Kd [3]: 0.0459 nM
